Laboratory results reported in patent US11633499B2, “Anti-TMEM-180 antibody, anticancer drug and cancer testing method” (NATIONAL CANCER CENTER JAPAN, priority 2016, dated 2023).
Substitutions are numbered along the chain they refer to.

Tests used:
colon cancer cell lines = assay: Flow cytometry (FACS) with anti-TMEM-180 IgM clones, colon cancer; assay type: binding; conditions: six types of colon cancers; FIG. 3
Protocol: (§1) Cancer cells targeted for measurement were cultured in medium and then added to a V-bottom 96-well plate (Corning Incorporated) to a concentration of 1×10^5 cells/well. The plate was centrifuged for 3 minutes at 440×g and 4° C. followed by removing the supernatant, adding antibody-producing hybridoma culture supernatant or antibody solution to the cell pellet at 50 μL/well and suspending therein. After allowing to react for 45 minutes on ice, the plate was washed three times with a mixture of 0.1% BSA, 2 mM EDTA and PBS at 200 μL/well. The supernatant was removed and secondary antibody was added to the cell pellet at 50 μL/well followed by suspending the cells therein. ALEXAFLUOR 647@ (fluorescent compound) goat anti-rat IgG (H-L) (Life Technologies Corporation) was used for the secondary antibody after diluting 400-fold with a mixture of 0.1% BSA, 2 mM EDTA and PBS. After allowing to react for 45 minutes on ice, the plate was washed three times with a mixture of 0.1% BSA, 2 mM EDTA and PBS at 200 μL/well. After removing the supernatant, 50 ng/mL of propidium iodide, 0.1% BSA, 2 mM EDTA and PBS were added to the cell pellet at 250 µL/well followed by suspending therein. The cells stained in this manner were measured using a flow cytometer such as the Guava easyCyte 8HT (Merck Millipore Corporation) followed by analysis of the resulting data using FlowJO (Tomy Digital Biology Co., Ltd.). FACS analysis was carried out using colon cancer, brain tumor and hematologic cancer.

DLD-1 colon cancer cells = assay: Fluorescent immunostaining of DLD-1 colon cancer cells; assay type: binding, human; conditions: fixed and permeabilized DLD-1; antibody concentrations of clones not aligned; FIG. 4
Protocol: DLD-1 cells were added to a 96-well plate (Corning Incorporated, CeIIBIND) to a concentration of 5×10^3 cells/well and subjected to cell staining after culturing for 2 days. The cells were subjected to fixation and permeation treatment in the manner indicated below. After washing the cell culturing plate twice with PBS at 200 μL/well, the washings were removed followed by the addition of 4% para-formaldehyde-phosphate buffer (Wako Pure Chemical Industries, Ltd.) containing 0.1% TRITON™ (surfactant) X-100 (Wako Pure Chemical Industries, Ltd.) at 100 µL/well while cooling with ice and fixing the cells for 10 minutes. After removing the fixation solution, the plate was washed once with PBS at 200 μL/well and once with a mixture of 1% FBS in PBS at 200 μL/well to obtain a cell-immobilized plate. The cells were stained in the manner indicated below. Namely, after removing medium from the non-immobilized cell culturing plate and removing washings from the cell-immobilized plate, […] hybridoma culture supernatant or diluted antibody solution was added at 50 μL/well. After allowing to react for 1 hour on ice, the plate was washed once with PBS at 200 μL/well and twice with a mixture of 1% FBS in PBS at 200 μL/well. After removing the washings, a mixture of 5 μg/mL ALEXAFLUOR 647@ (fluorescent compound) goat anti-rat IgG (H-L), 2 μg/mL Hoechst 33342 and 1% FBS/PBS was added at 50 μL/well. After allowing to react for 1 hour on ice, the plate was washed twice with PBS at 200 μL/well. PBS was then added at 50 μL/well followed by measuring with ArrayScan (Thermo Fisher Scientific Inc.).

brain tumor cell lines = assay: Flow cytometry (FACS) with anti-TMEM-180 IgM clones, brain tumor; assay type: binding; conditions: four types of brain tumors; FIG. 3
Protocol: as §1

TMEM-180 = molecular target: T1, TMEM-180 (Homo sapiens, UniProt Q14CX5); assay: FACS of DLD-1 parent line and TMEM-180 knockout line; assay type: binding
T1 construct: endogenous in cells; host or cells: DLD-1 colon cancer cell line (parent / wild type); culture supernatant exosomes in A20
T1 sequence (Q14CX5 1-517): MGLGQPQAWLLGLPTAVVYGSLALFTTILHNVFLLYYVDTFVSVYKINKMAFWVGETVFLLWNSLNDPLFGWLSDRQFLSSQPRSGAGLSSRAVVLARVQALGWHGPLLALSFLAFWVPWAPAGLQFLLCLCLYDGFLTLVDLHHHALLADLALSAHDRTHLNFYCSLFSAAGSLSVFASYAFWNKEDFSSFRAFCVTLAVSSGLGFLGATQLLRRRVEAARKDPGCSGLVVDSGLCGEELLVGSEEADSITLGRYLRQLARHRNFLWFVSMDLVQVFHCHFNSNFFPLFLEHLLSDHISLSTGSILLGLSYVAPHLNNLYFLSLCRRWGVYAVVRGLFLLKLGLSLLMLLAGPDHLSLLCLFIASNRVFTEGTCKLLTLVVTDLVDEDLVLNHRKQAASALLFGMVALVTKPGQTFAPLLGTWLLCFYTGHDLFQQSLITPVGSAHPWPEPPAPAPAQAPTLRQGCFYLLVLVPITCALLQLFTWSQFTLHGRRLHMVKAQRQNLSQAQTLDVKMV
Protocol: The plate was centrifuged for 3 minutes at 440×g and 4° C. followed by removing the supernatant, adding antibody-producing hybridoma culture supernatant or antibody solution to the cell pellet at 50 μL/well and suspending therein. After allowing to react for 45 minutes on ice, the plate was washed three times with a mixture of 0.1% BSA, 2 mM EDTA and PBS at 200 μL/well. The supernatant was removed and secondary antibody was added to the cell pellet at 50 μL/well followed by suspending the cells therein. […] After allowing to react for 45 minutes on ice, the plate was washed three times with a mixture of 0.1% BSA, 2 mM EDTA and PBS at 200 μL/well. […] The cells stained in this manner were measured using a flow cytometer such as the Guava easyCyte 8HT (Merck Millipore Corporation) followed by analysis of the resulting data using FlowJO (Tomy Digital Biology Co., Ltd.). FACS analysis was carried out using colon cancer, brain tumor and hematologic cancer.
Flow cytometry was carried out in accordance with the procedure described in the above-mentioned section 3. […] The supernatant of a culture of hybridoma producing rat IgM antibody clone 365 was used as a negative control after similarly diluting to 1 μg/mL. […] A mixture of RPMI and 10% FBS was used to dilute each of the antibodies. Furthermore, antibody concentration in the hybridoma culture supernatant was measured by rat IgM-specific ELISA (Bethyl Laboratories).

colon cancer DLD-1 cells = assay: Cytocidal effect of anti-TMEM-180 IgM antibody (WST-8), DLD-1; assay type: cell-based, human; conditions: hybridoma culture supernatant adjusted to 80, 20 or 5 μg/mL, 96 hours, FIGS. 7 and 8
Protocol: (§2) DLD-1 cells and K562 cells were added to a 96-well plate at 1×10^3 cells/100 μL/well followed by culturing for 24 hours. 50 μL of medium were removed from each well of the 96-well plate followed by the addition of rat IgM antibody clone 98-producing hybridoma culture supernatant or rat IgM antibody clone 101-producing hybridoma culture supernatant, in which antibody concentration had been adjusted to 80 μg/mL, 20 μg/mL or 5 μg/mL, at 50 μL/well. Here, n number in each culture condition was 3, and wells containing medium only were prepared as controls. […] After culturing for 96 hours, WST-8 (Dojindo Laboratories, Cell Counting Kit-8) was added at 10 μL/well followed by measuring absorbance at 450 nm with a microplate reader after culturing for 3 hours. The relative values of absorbance at each antibody concentration were plotted by plotting antibody concentration on the horizontal axis and assigning a value of 1 to the optical absorbance of the well containing medium only. […] Cytocidal effects were also observed for other colon cancer cells Difi, Carl, SW480 and Colo201.

[1] = test system: hematologic tumor K562 cells; assay: Cytocidal effect of anti-TMEM-180 IgM antibody (WST-8), K562; assay type: cell-based; conditions: hybridoma culture supernatant adjusted to 80, 20 or 5 μg/mL, 96 hours, FIGS. 7 and 8
Protocol: as §2

[2] = test system: cell lines derived from cancers (ATCC and JCRB); assay: Reactivity of antibodies to cancer-derived cell lines by FACS (Table 23); assay type: binding; conditions: Cancer Type: Colon
Protocol: as §1
Cancer-detection rates were tested using monoclonal antibodies (the 669 antibody, 1052 antibody, 1105 antibody, and 1361 antibody).
In this Example, the reactivity of the antibodies to the cell lines derived from cancers which were obtained from ATCC and JCRB was analyzed by FACS.

[3] = test system: cell lines derived from cancers (ATCC and JCRB); assay: as above; assay type: binding

B1: clone 212: rat IgM anti-TMEM-180 monoclonal antibody; variable regions SEQ ID NOs: 46 and 47 (antibody, V domains shown)
VH: MDIRLSLAFLVLFIKGVQCEVQLVESGGGLVQPGNSLKLSCAASGFTFSDYAMAWVRQSPKKGLEWVATIIYDGSSTYYRDSVKGRFTISRDNAKSTLYLQMDSLRSEDTATYYCATHWYWYFDFWGPGTMVTVSS
VL: MGVPTQLLGLLLLWITDAICDIQMTQSPASLSASLGETVSIECLASEGISNDLAWYQQKSGKSPQLLIYAASRLQDGVPSRFSGSGSGTRYSLKISGMQPEDEADYFCQQSYKYPLTFGSGTKLEIK
Colon cancer cell lines
  FACS reactivity to colon cancers: positive for all six types of colon cancers
DLD-1 colon cancer cells
  fluorescent immunostaining (pattern, intensity): weaker fluorescence intensity than clone 98 and the cytoplasm was also stained
Brain tumor cell lines
  FACS reactivity to brain tumors: positive for only one type of brain tumor

B2: rat-human chimeric antibody clone 98: rat-human chimeric IgG1 antibody carrying clone 98 variable regions (antibody, V domains shown)
VH: QVQLKESGPGLVQPSQTLSLTCTVSGFSLTRYNVHWVRQPTGKGLEWMGVIWTGGSTDYNSALKSRLSISRDTSKSQVFLKMNSLQTEDIATYYCARDLGYWGQGVMVTVSS
VL: DIVMTQTPLSLSVAIGQSASISCKSSQSLKYRDGKTYLNWVFQSPGQSPKRLIYQVSKLDSGVPDRFSGTGSETDFTLKISRVEAEDLGVYYCCQGSYSPHTFGAGTKLELK
TMEM-180; DLD-1 parent line vs TMEM-180 knockout line, FIG. 5
  FACS shift, TMEM-180 knockout line versus parent line: considerable left shift
TMEM-180; conclusion from DLD-1 parent vs knockout FACS
  specific recognition of TMEM-180: specifically recognize TMEM-180

B3: clone 101: rat IgM anti-TMEM-180 monoclonal antibody; variable regions SEQ ID NOs: 15 and 16 (antibody, V domains shown)
VH: MAILVLLLCLVTIPHSVLSQVQLKETGPGLVQPTQTLSITCTVSGFSLTSYYMQWVRQTPGKGLEWMGFIRSGGSTEYNSEFKSRLSISRDTSKNQVFLKMNSLKTEDTGVYYCARAFYGGYYFDYWGQGVMVTVSS
VL: MGIRMESHTRVFIFLLLWLSGADGDIVMTQSPTSISISVGERVTMNCKASQNVGSNVDWYQQKTGQSPKLLIYKASNRYTGVPDRFTGSGSGTDFTFTISNMQAEDLAVYYCMQSNTKYTFGAGTKLELK
Colon cancer DLD-1 cells
  cytocidal effects against DLD-1 cells: demonstrated cytocidal effects
Colon cancer cell lines
  FACS reactivity to colon cancers: positive for four types of colon cancers
DLD-1 colon cancer cells
  fluorescent immunostaining (pattern, intensity): weaker fluorescence intensity than clone 98 and the cytoplasm was also stained
Brain tumor cell lines
  FACS reactivity to brain tumors: negative for all of the brain tumors
[1]
  cytocidal effects against K562 cells: did not demonstrate cytocidal effects

B4: clone 1052: rat IgM anti-TMEM-180 monoclonal antibody; variable regions SEQ ID NOs: 94 and 95 (antibody, V domains shown)
VH: MAVLVLLLCLVTFPSCVLSQVQLKESGPGLMQPSETLSLTCTVSGFSLTSNGVGWVRQPLGKGLVWMGTIWTGGGTNYNSGVQSRLSISRDTSKSQVFLKMNSLQPEDTGTYYCAREYMGFDYWGQGVMVTVSS
VL: MELISQVFVFLLLWLSGVYGNTVMTQSPTSMFTSVGDRVTMSCKASQNVGINVGWYQQKTGQSPKRLIYWASNRDTGVPDRFTGSGSGTDFTLTISNMQAEDPAIYYCLQHNSYPRTFGGGTKLELK
[2]
  Detection Sensitivity of Cancers, P/N: (3/10)
  Detection Sensitivity of Cancers, Percentage (%): 30%
[3]; Cancer Type: Bladder
  Detection Sensitivity of Cancers, P/N: (2/4)
  Detection Sensitivity of Cancers, Percentage (%): 50%
[3]; Cancer Type: Brest
  Detection Sensitivity of Cancers, P/N: (3/6)
  Detection Sensitivity of Cancers, Percentage (%): 50%
[3]; Cancer Type: Gastric
  Detection Sensitivity of Cancers, P/N: (2/8)
  Detection Sensitivity of Cancers, Percentage (%): 25%
[3]; Cancer Type: Pancreas
  Detection Sensitivity of Cancers, P/N: (4/9)
  Detection Sensitivity of Cancers, Percentage (%): 44%

B5: clone 1105: rat IgM anti-TMEM-180 monoclonal antibody; variable regions SEQ ID NOs: 102 and 103 (antibody, V domains shown)
VH: B4 VH with T72S, G81A, S89T, Y118E, M119K, D122A, V128T, M129L
VL: B4 VL with T22I, F32S, T117A, K127R
[2]
  Detection Sensitivity of Cancers, P/N: (3/10)
  Detection Sensitivity of Cancers, Percentage (%): 30%
[3]; Cancer Type: Bladder
  Detection Sensitivity of Cancers, Percentage (%): 50%
[3]; Cancer Type: Brest
  Detection Sensitivity of Cancers, P/N: (3/6)
  Detection Sensitivity of Cancers, Percentage (%): 50%
[3]; Cancer Type: Gastric
  Detection Sensitivity of Cancers, P/N: (2/8)
  Detection Sensitivity of Cancers, Percentage (%): 25%
[3]; Cancer Type: Pancreas
  Detection Sensitivity of Cancers, P/N: (4/9)
  Detection Sensitivity of Cancers, Percentage (%): 44%
